The values that follow come from US20240116985A1 (published 2024).

Test [1] concerns the target T1, full-length beta-Catenin (Uniprot ID P35222) (Homo sapiens (Human), UniProt P35222 1-781).
T1 construct: also called bCat; B-Catenin
T1 sequence: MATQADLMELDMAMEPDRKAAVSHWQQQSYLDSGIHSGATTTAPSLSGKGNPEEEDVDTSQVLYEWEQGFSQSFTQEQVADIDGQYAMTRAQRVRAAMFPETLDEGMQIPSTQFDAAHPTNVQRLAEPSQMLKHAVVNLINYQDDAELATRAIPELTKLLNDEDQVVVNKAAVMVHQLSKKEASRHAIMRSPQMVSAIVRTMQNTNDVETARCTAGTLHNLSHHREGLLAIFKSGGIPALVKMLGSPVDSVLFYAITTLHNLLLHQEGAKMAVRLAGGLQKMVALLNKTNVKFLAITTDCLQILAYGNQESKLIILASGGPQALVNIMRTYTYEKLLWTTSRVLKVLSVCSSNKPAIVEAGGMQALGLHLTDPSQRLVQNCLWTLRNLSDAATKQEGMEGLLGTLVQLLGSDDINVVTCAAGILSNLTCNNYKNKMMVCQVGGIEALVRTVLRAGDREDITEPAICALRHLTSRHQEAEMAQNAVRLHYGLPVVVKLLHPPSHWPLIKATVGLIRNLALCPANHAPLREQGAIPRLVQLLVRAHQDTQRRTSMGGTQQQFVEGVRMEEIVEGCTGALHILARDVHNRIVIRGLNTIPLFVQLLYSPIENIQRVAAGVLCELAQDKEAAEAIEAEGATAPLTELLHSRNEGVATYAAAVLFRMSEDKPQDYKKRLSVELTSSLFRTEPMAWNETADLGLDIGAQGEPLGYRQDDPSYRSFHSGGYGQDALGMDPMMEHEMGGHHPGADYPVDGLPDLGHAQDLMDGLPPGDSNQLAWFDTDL
In words: fluorescence polarization competition; peptide titrated against 10 nM full-length beta-catenin + 10 nM 5FAM-TCF4(10-53). The protocol: (§1) The plate was incubated protected from light for 60 minutes at 20° C. prior to read. Reads were performed on a CLARIOstar plate reader (BMG Labtech) in duplicate, and data were fitted to a 1:1 binding model with hill slope using an in-house script. All provided concentrations are final concentrations.
A general note: In fluorescence polarisation assays a small probe gives low polarisation when free and higher when bound to something large.

The target of test [2] is T2, B-cat-Halo (beta-catenin HaloTag NanoBRET construct expressed in HEK293 cells) (UniProt P35222 1-781, HaloTag NanoBRET 618 Ligand bound to the HaloTag).
T2 sequence (looked up): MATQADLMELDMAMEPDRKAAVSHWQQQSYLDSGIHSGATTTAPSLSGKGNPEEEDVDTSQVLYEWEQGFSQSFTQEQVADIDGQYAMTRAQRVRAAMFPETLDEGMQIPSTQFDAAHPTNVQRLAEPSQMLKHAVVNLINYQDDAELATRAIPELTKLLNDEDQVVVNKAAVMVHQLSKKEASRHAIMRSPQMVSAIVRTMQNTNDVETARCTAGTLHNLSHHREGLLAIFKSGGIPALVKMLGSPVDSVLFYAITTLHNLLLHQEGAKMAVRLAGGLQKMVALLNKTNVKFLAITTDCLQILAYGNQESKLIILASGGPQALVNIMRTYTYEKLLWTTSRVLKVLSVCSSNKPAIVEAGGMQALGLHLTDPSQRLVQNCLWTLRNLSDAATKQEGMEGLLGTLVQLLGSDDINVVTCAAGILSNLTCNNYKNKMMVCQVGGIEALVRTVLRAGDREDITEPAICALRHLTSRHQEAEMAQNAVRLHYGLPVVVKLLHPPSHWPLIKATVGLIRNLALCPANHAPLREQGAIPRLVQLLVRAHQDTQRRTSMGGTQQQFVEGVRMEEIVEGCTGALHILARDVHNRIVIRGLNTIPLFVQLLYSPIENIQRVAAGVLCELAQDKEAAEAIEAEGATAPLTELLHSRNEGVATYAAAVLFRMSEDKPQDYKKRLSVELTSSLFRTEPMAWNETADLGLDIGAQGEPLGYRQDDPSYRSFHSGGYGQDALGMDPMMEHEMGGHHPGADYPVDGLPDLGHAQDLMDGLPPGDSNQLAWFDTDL
In words: cell-based or functional assay.

The target in test [3] is T3, full-length beta-Catenin (Uniprot ID P35222) (Homo sapiens (Human), UniProt P35222 1-781).
T3 construct: Any tags on the recombinant protein are not described for the FP assay; also called bCat; B-Catenin
T3 sequence: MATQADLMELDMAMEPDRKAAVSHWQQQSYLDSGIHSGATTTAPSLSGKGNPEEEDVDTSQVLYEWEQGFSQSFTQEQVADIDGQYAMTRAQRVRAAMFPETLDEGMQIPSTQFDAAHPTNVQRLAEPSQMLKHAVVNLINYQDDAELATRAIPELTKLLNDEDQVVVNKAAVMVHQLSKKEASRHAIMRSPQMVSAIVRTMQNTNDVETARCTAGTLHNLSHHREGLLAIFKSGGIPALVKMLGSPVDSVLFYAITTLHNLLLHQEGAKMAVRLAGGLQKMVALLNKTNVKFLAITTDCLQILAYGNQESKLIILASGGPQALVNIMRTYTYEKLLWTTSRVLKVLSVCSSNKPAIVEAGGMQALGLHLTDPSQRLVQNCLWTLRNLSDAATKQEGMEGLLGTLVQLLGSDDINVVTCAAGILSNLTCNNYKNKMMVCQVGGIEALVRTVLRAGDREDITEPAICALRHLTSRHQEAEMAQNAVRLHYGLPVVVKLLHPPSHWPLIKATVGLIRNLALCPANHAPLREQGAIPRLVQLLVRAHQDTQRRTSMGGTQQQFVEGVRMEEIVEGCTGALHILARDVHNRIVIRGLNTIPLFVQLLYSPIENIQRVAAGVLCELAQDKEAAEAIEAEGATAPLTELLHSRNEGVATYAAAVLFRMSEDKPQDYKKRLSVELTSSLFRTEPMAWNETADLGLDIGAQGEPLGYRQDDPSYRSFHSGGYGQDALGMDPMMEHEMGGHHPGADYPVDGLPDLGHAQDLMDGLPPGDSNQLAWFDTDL
Briefly: fluorescence polarization competition; displacement of 5FAM-TCF4(10-53) from full-length beta-catenin. On the procedure:
as §1

Starred links: 1 amine or outer side, 2 acyl side, 3 side chain; linkers in the order of their positions; H or OH if unused. Positions of bridges follow the written chain, without caps; N, C: chain ends. Non-standard residues stand in square brackets, D forms with d. Primed or numbered codes have the meaning given here. B5(15) = 2-amino-2-(pent-4-en-1-yl)hept-6-enoic acid (2,2-bis(4-pentenyl)glycine), stitching residue bearing two staples, C=CCCCC(CCCC=C)(N[*:1])C(=O)[*:2]; B5(5) = 2,2-bis(4-pentenyl)glycine, 2-amino-2-(pent-4-en-1-yl)hept-6-enoic acid (stitching residue), C=CCCCC(CCCC=C)(N[*:1])C(=O)[*:2]; B5(19) = 2-amino-2-(pent-4-en-1-yl)hept-6-enoic acid (bis(4-pentenyl)glycine), C=CCCCC(CCCC=C)(N[*:1])C(=O)[*:2]; Phe(4-CN) = N#Cc1ccc(C[C@H](N)C(=O)O)cc1; Bta = N[C@@H](Cc1csc2ccccc12)C(=O)O; αAllylPro = C=CC[C@@]1(C(=O)O)CCCN1; S8 = C=CCCCCCC[C@](C)(N)C(=O)O; hSer = N[C@@H](CCO)C(=O)O

B1: I-359 (peptide)
peptide: Ac-[αAllylPro]DA[B5(19)]DDAAFV[S8][Phe(4-CN)][Bta]Q-NH2
modifications: staple 1-4, 4-11
notes: Stapled peptide; also called Ac-PL3-Asp-Ala-B5-Asp-Asp-Ala-Ala-Phe-Val-S8-4CNF-BztA-Gln-NH2
Usually IC50 stands for the point on the concentration scale where inhibition reaches its midpoint. For B1, in test [1], the IC50 was found to be 5 µM.

B2: I-1526: Ac-PL3-Asp-Ser-B5-Asp-Glu-Ala-Ala-Phe-Gln-S8-Phe-BztA-Gln-NH2 (peptide)
peptide: Ac-[αAllylPro]DS[B5(5)]DEAAFQ[S8]F[Bta]Q-NH2
modifications: staple 1-4, 4-11; also: staple isomer, earlier eluting HPLC peak
notes: Stapled peptide composition; It has the same description as I-1527 and is the staple isomer composition of the earlier eluting HPLC peak
In the case of B2, in test [2], the “NanoBRET Abs IC50” value was over 20 µM. This molecule displayed an IC50 in test [3] of 84 nM.

B3: I-1531: Ac-PL3-Asp-Asn-B5-Asp-Glu-Ala-Ala-Phe-Gln-S8-Phe-BztA-Gln-NH2 (peptide)
peptide: XDNXDEAAFQXFXQ
modifications: not fully specified; N-terminal Ac; C-terminal NH2; PL3 at 1, B5 at 4 and S8 at 11 stapled by olefin metathesis (PL3-B5 and B5-S8); BztA at 13
notes: Stapled peptide composition; It has the same description as I-1532 and is the staple isomer composition of the earlier eluting HPLC peak
Take B3: the “NanoBRET Abs IC50” value in test [2] is over 20 µM. In test [3], this molecule gave an IC50 of 84 nM.

B4: I-1528: Ac-PL3-Asp-Ser-B5-Asp-Glu-Ala-Ala-Phe-Leu-S8-Phe-BztA-Gln-NH2 (peptide)
peptide: Ac-[αAllylPro]DS[B5(5)]DEAAFL[S8]F[Bta]Q-NH2
modifications: staple 1-4, 4-11
notes: Stapled peptide composition; Staple olefins are retained
In the case of B4, the “NanoBRET Abs IC50” value in test [2] worked out at 31.4 µM. The same molecule showed an IC50 in test [3] of 102 nM.

B5: I-1529: Ac-PL3-Asp-Ser-B5-Asp-Glu-Ala-Ala-Phe-Hse-S8-Phe-BztA-Gln-NH2 (peptide)
peptide: Ac-[αAllylPro]DS[B5(15)]DEAAF[hSer][S8]F[Bta]Q-NH2
modifications: staple 1-4, 4-11; not fully specified; printed as Ac-PL3-Asp-Ser-B5-Asp-Glu-Ala-Ala-Phe-Hse-S8-Phe-BztA-Gln-NH2
notes: Stapled peptide composition
For B5, the “NanoBRET Abs IC50” value in test [2] was over 20 µM. In test [3], the IC50 is 126 nM.

B6: I-1530: Ac-PL3-Asp-Ser-B5-Asp-Glu-Ala-Ala-Phe-Hse-S8-Phe-BztA-Gln-NH2 (peptide)
peptide: Ac-[αAllylPro]DS[B5(15)]DEAAF[hSer][S8]F[Bta]Q-NH2
modifications: staple 1-4, 4-11; not fully specified; printed as Ac-PL3-Asp-Ser-B5-Asp-Glu-Ala-Ala-Phe-Hse-S8-Phe-BztA-Gln-NH2
notes: Stapled peptide composition; It has the same description as I-1529 and is the staple isomer composition of the later eluting HPLC peak
In the case of B6, the “NanoBRET Abs IC50” value in test [2] worked out at 36.9 µM. Further, in test [3], the IC50 was 61 nM.
